# Tests used:
# [1] = target: the molecule itself; test: crystal structure; single-chain PCNA (three subunits joined on one chain) with a 10-base pair DNA; hanging drop, 100 mM Na acetate pH 4.6, 100 mM NaCl, 14% PEG 4K, 20°C; space group P2(1)2(1)2(1); 3.0 Å
# [2] = target: T1, RFC (Replication Factor C clamp loader);PCNA wild-type (Saccharomyces cerevisiae;Saccharomyces …, UniProt P38630;P40348;P38629;P40339;P38251;P15873 1-861;1-353;2-340;1-323;1-354;1-258, |); test: fluorescence anisotropy; RFC titrated; 1 uM PCNA, 1 mM ATPgS, 10 mM MgCl2; Anisotropy: 30 mM Tris pH 7.5, 200 mM NaCl, 2 mM DTT, 1 mM ATPgS, 10 mM MgCl2, 100 nM TAMRA-DNA, 1 uM PCNA, 25 C. Crystals: 100 mM Na acetate pH 4.6, 100 mM NaCl, 14% PEG 4K, 20 C; conditions: protein: recombinant;recombinant; tags: ;N-terminal 6-His, PreScission-cleaved; copies: 1;1;1;1;1;3; label: TAMRA at 5' end of template strand; 5' overhang 10 nt on template (3' recessed primer), 30 bp duplex
# [3] = target: T2, RFC (Replication Factor C clamp loader);PCNA K20A/K77A/R80A/R149A (Saccharomyces cerevisiae;Saccharomyces …, UniProt P38630;P40348;P38629;P40339;P38251;P15873 1-861;1-353;2-340;1-323;1-354;1-258, |K20A;K77A;R80A;R149A); test: fluorescence anisotropy; RFC titrated; 1 uM mutant PCNA, 1 mM ATPgS, 10 mM MgCl2; Anisotropy: 30 mM Tris pH 7.5, 200 mM NaCl, 2 mM DTT, 1 mM ATPgS, 10 mM MgCl2, 100 nM TAMRA-DNA, 1 uM PCNA, 25 C. Crystals: 100 mM Na acetate pH 4.6, 100 mM NaCl, 14% PEG 4K, 20 C; conditions: protein: recombinant;recombinant; tags: ;N-terminal 6-His, PreScission-cleaved; copies: 1;1;1;1;1;3; label: TAMRA at 5' end of template strand; 5' overhang 10 nt on template (3' recessed primer), 30 bp duplex
# [4] = target: T1, RFC (Replication Factor C clamp …); test: fluorescence anisotropy; RFC titrated; 1 uM PCNA, 1 mM ATPgS, 10 mM MgCl2; Kd only in figure; Anisotropy: 30 mM Tris pH 7.5, 200 mM NaCl, 2 mM DTT, 1 mM ATPgS, 10 mM MgCl2, 100 nM TAMRA-DNA, 1 uM PCNA, 25 C. Crystals: 100 mM Na acetate pH 4.6, 100 mM NaCl, 14% PEG 4K, 20 C; conditions: protein: recombinant;recombinant; tags: ;N-terminal 6-His, PreScission-cleaved; copies: 1;1;1;1;1;3; label: TAMRA at 5' end of template strand; 5' overhang 10 nt on template (3' recessed primer), 13 bp duplex
# [5] = target: T2, RFC (Replication Factor C clamp …); test: fluorescence anisotropy; RFC titrated; 1 uM mutant PCNA, 1 mM ATPgS, 10 mM MgCl2; affinity changes little vs wild-type PCNA; Kd only in figure; Anisotropy: 30 mM Tris pH 7.5, 200 mM NaCl, 2 mM DTT, 1 mM ATPgS, 10 mM MgCl2, 100 nM TAMRA-DNA, 1 uM PCNA, 25 C. Crystals: 100 mM Na acetate pH 4.6, 100 mM NaCl, 14% PEG 4K, 20 C; conditions: protein: recombinant;recombinant; tags: ;N-terminal 6-His, PreScission-cleaved; copies: 1;1;1;1;1;3; label: TAMRA at 5' end of template strand; 5' overhang 10 nt on template (3' recessed primer), 13 bp duplex
# [6] = target: single-chain PCNA (three fused PCNA subunits) (Saccharomyces cerevisiae, UniProt P15873;P15873;P15873 1-257;2-257;2-258, R110S;Y114S); test: X-ray crystallography; 3.0 A; DNA tilted ~40 deg, partly disordered, refined as rigid body; pH 4.6; Anisotropy: 30 mM Tris pH 7.5, 200 mM NaCl, 2 mM DTT, 1 mM ATPgS, 10 mM MgCl2, 100 nM TAMRA-DNA, 1 uM PCNA, 25 C. Crystals: 100 mM Na acetate pH 4.6, 100 mM NaCl, 14% PEG 4K, 20 C; conditions: protein: recombinant; tags: N-terminal 6-His, PreScission-cleavable; copies: 1;1;1; label: Cy5 at 5' end of primer strand; 5' overhang 4 nt on template, 10 bp duplex
# Sequence of single-chain PCNA (three fused PCNA subunits) (P15873 2-257 R110S/Y114S, one chain of several): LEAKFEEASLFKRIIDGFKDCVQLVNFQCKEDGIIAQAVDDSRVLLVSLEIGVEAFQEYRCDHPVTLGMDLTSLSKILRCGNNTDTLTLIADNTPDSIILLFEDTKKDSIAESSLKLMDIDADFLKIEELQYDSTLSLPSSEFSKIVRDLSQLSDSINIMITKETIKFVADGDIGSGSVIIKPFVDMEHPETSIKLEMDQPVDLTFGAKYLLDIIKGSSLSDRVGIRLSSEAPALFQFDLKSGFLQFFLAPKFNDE
binder,measurement,setting,value
"S. cerevisiae Proliferating Cell Nuclear Antigen (PCNA), wild type (natural protein, PCNA, S. cerevisiae; The subunit-with-subunit row from the single-chain PCNA structure is also written on this molecule; also called wild-type PCNA; yeast PCNA; source: E. coli BL21(DE3), purified (HisTrap FF, PreScission protease, HiTrap Q HP); not shown: His6, N-terminal, cleaved) MLEAKFEEASLFKRIIDGFKDCVQLVNFQCKEDGIIAQAVDDSRVLLVSLEIGVEAFQEYRCDHPVTLGMDLTSLSKILRCGNNTDTLTLIADNTPDSIILLFEDTKKDRIAEYSLKLMDIDADFLKIEELQYDSTLSLPSSEFSKIVRDLSQLSDSINIMITKETIKFVADGDIGSGSVIIKPFVDMEHPETSIKLEMDQPVDLTFGAKYLLDIIKGSSLSDRVGIRLSSEAPALFQFDLKSGFLQFFLAPKFNDEE",stoichiometry N,[1],3
DNA-30 (dsDNA) DNA 1: GAGCATTCAAGGACTTAGGTCTGTATTTATCTACCCACAA DNA 2: TTGTGGGTAGATAAATACAGACCTAAGTCC,Kd,[2],~100 nM
same,binding signal,[3],~5 fold weaker Kd than with wild-type PCNA (nearly 5)
DNA-13 (dsDNA) DNA 1: GAGCATTCAAGGACTTAGGTCTG DNA 2: CAGACCTAAGTCC,binding result,[4],binds
same,binding result,[5],binds
crystallization primer-template DNA (dsDNA) DNA 1: TTTTATACGATGGG DNA 2: CCCATCGTAT,binding result,[6],binds
